Here are results for one protein from publication PMC9797636, “Transcriptomic and enzymatic analysis reveals the roles of glutamate dehydrogenase in Corynebacterium glutamicum” (AMB Express, 2022).

Holding throughout (assay): purified protein
Type in all cases: biochemical, Corynebacterium glutamicum

Substrate in series [1]: NC(=O)C1=CN([C@@H]2O[C@H](COP(=O)(O)OP(=O)(O)OC[C@H]3O[C@@H](n4cnc5c(N)ncnc54)[C@H](OP(=O)(O)O)[C@@H]3O)[C@@H](O)[C@H]2O)C=CC1
The note with it: reductive amination, 2-oxoglutarate, NH4Cl, Tris-HCl pH 7.0, 25 °C, pH 7.0.

Substrate in series [2]: NC(=O)c1ccc[n+]([C@@H]2O[C@H](COP(=O)(O)OP(=O)(O)OC[C@H]3O[C@@H](n4cnc5c(N)ncnc54)[C@H](OP(=O)(O)O)[C@@H]3O)[C@@H](O)[C@H]2O)c1
The note with it: oxidative deamination, L-glutamate, Tris-HCl, 25 °C.

Substrate in series [3]: O=C(O)CCC(=O)C(=O)O
The note with it: reductive amination, NADPH, NH4Cl, Tris-HCl pH 7.0, 25 °C, pH 7.0.

B1: GdhA (Corynebacterium glutamicum ATCC 13032) (protein)
chain: MTVDEQVSNYYDMLLKRNAGEPEFHQAVAEVLESLKIVLEKDPHYADYGLIQRLCEPERQLIFRVPWVDDQGQVHVNRGFRVQFNSALGPYKGGLRFHPSVNLGIVKFLGFEQIFKNSLTGLPIGGGKGGSDFDPKGKSDLEIMRFCQSFMTELHRHIGEYRDVPAGDIGVGGREIGYLFGHYRRMANQHESGVLTGKGLTWGGSLVRTEATGYGCVYFVSEMIKAKGESISGQKIIVSGSGNVATYAIEKAQELGATVIGFSDSSGWVHTPNGVDVAKLREIKEVRRARVSVYADEVEGATYHTDGSIWDLKCDIALPCATQNELNGENAKTLADNGCRFVAEGANMPSTPEAVEVFRERDIRFGPGKAANAGGVATSALEMQQNASRDSWSFEYTDERLQVIMKNIFKTCAETAAEYGHENDYVVGANIAGFKKVADAMLAQGVI
For B1, in series [1], the Km worked out at 166 µM, the maximal velocity (Vmax) turned out to be 1.54 µmol/min/mg, the kcat was found to be 0.257 s⁻¹ and the kcat/Km stood at 1540 M⁻¹ s⁻¹. Further, in series [2], the Km stood at 505 µM, the Vmax came to 1.34 µmol/min/mg, the kcat was determined as 0.224 s⁻¹ and the kcat/Km was 443 M⁻¹ s⁻¹. In series [3], the Km was 2534 µM, the Vmax was 0.809 µmol/min/mg, the turnover number (kcat) is 0.135 s⁻¹ and the kcat/Km came out at 53.2 M⁻¹ s⁻¹.

As a reminder, the Km is the substrate concentration at which the rate is half of its maximum. As a reminder, the Vmax is the top rate of the reaction or transport when substrate is in excess. By kcat is commonly meant the maximal rate divided by the concentration of active sites. Usually kcat/Km stands for the turnover number divided by the Michaelis constant.
